# Data from the RNAGym collection of RNA variant scans (doi:10.1021/acssynbio.7b00057).
# B1: Pistol ribozyme (parent)
# chain: GGGUCGUUGUUCCAUAAUCGCGUGGAUAUGGCACGCAAGUUUCUACCGGGCACCGUAAAUGUCCGACUGGAGCCGUUCGGGCGGCUAUAAACAGACCUCAGGCCCGAAGCGUGGCGGCACCUGCCGCCGGUGGUAAAAAAGAUCGGAAGAGCACACGUCU
# Variants of: B1
# Assay: aptazyme ON/OFF ratio, guanine; higher = stronger switching; co-transcriptional cleavage with and without guanine
row,Variant,aptazyme ON/OFF ratio
1,U7G U8C U10G U11C C12G C13A,1.28
2,U7G U8C U10G U11C C12G C13U,1.36
3,U7G U8C U11A C12A C13A,1.23
4,U7G U8C U11A C12A C13U,1.25
5,U7G U8C U11A C12A C13G,1.1
6,U7G U8C U10C C12G C13U,1.28
7,U7G U8C U10C C12G C13G,1.24
8,U7G U8C U10C C12G C13A,1.2
9,U7G U8G,1.29
10,U7G U8G G9A,3.82
11,U7G U8C U10A U11C C12U C13A,1.13
12,U7G U8C U10A U11C C12U C13G,1.12
13,U7G U8C U10A U11C C12U C13U,1.07
14,U7G U8C U10C U11G C13G,1.26
15,U7G U8C U10C U11G C13A,1.23
16,U7G U8C U10C U11G C13U,1.38
17,U7G U8G G9A U10A U11C C12G C13A,1.13
18,U7G U8G G9A U10A U11C C12G C13U,1.13
19,U7G U8G G9A U10A U11C C12G C13G,1.22
20,U7G U8G G9A U10A U11A C12G C13A,1.15
21,U7G U8G G9A U10A U11A C12G C13U,1.33

row,Variant,aptazyme ON/OFF ratio
1,U7G U8G G9A U10A U11A C12G C13G,1.1
2,U7G U8G G9A C12G C13G,1.14
3,U7G U8G G9A C12G C13A,1.14
4,U7G U8G G9A C12G C13U,1.3
5,U7G U8C U10G U11C C13U,1.4
6,U7G U8C U10G U11C C13G,1.19
7,U7G U8C U10G U11C C13A,1.33
8,U7G U8C G9U U11G C12A C13G,1.35
9,U7G U8C G9U U11G C12A C13U,1.38
10,U7G U8C U10A U11A C12U C13U,1.24
11,U7G U8C U10A U11A C12U C13A,1.2
12,U7G U8C U10A U11A C12U C13G,1.2
13,U7G U8C U10C U11C C12A C13G,1.33
14,U7G U8C U10C U11C C12A C13U,1.2
15,U7G U8C U10C U11C C12A C13A,1.27
16,U7G U8G C12A C13A,1.31
17,U7G U8G C12A C13G,1.22
18,U7G U8G C12A C13U,1.57
19,U7G U8G G9A U10A U11G,2.19
20,U7G U8G G9A U10A U11C,1.02
21,U7G U8G G9A U10A U11A,1.53

row,Variant,aptazyme ON/OFF ratio
1,U7G U8C U11G C12G C13A,1.11
2,U7G U8C U11G C12G C13G,1.11
3,U7G U8C U11G C12G C13U,1.12
4,U7G U8G G9A U10A C12A,1.46
5,U7G U8G G9A U10A C12U,1.52
6,U7G U8G G9A U10A C12G,1.5
7,U7G U8C U10C U11C C12U C13A,1.08
8,U7G U8C U10C U11C C12U C13U,1.11
9,U7G U8C U10C U11C C12U C13G,1.12
10,U7G U8C U11A,1.39
11,U7G U8C U11G,1.01
12,U7G U8C U11C,1.53
13,U7G U8C U10C U11A C12G C13U,1.2
14,U7G U8C U10C U11A C12G C13A,1.13
15,U7G U8C U10C U11A C12G C13G,1.21
16,U7G U8C U10A U11G C12G C13A,1.22
17,U7G U8C U10A U11G C12G C13U,1.25
18,U7G U8C U10A U11G C12G C13G,1.3
19,U7G U8C U10G U11A C13G,1.13
20,U7G U8C U10G U11A C13A,1.16
21,U7G U8C U10G U11A C13U,1.19

row,Variant,aptazyme ON/OFF ratio
1,U7G U8C U10G C12U C13G,1.22
2,U7G U8C U10G C12U C13A,1.34
3,U7G U8C U10G C12U C13U,1.36
4,U7G U8C U10C U11C C13A,1.04
5,U7G U8C U10C U11C C13G,1.04
6,U7G U8C U10C U11C C13U,1.07
7,U7G U8G C12G C13A,1.4
8,U7G U8G C12G C13G,1.36
9,U7G U8G C12G C13U,1.37
10,U7G U8C U10G U11A C12A C13A,1.11
11,U7G U8C U10G U11A C12A C13U,1.12
12,U7G U8C U10G U11A C12A C13G,1.1
13,U7G U8C U10G U11G C12U C13U,1.34
14,U7G U8C U10G U11G C12U C13A,1.26
15,U7G U8C U10G U11G C12U C13G,1.29
16,U7G U8G G9A C12U C13G,1.22
17,U7G U8G G9A C12U C13A,1.27
18,U7G U8G G9A C12U C13U,1.41
19,U7G U8C U11G C12A C13A,1.13
20,U7G U8C U11G C12A C13G,1.15
21,U7G U8C U11G C12A C13U,1.19
